The record followed here is patent US20090075270A1.

Data set [1] has as its target Kid toxin (endoribonuclease) of the parD locus of E. coli plasmid R1 (Escherichia coli plasmid R1) (UniProt P13976). The experiment in a line: cell-based or functional assay.
Data set [2] has as its target T1, Kis antitoxin of the parD locus of E. coli plasmid R1 (wild type), P13975.
T1 chain: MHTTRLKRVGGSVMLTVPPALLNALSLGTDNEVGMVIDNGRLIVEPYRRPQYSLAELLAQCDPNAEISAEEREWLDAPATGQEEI

As to “Kis17, thermo-sensitive mutant Kis antitoxin (P18L) (from UniProt P13975 1-85)”, the repA/copB ratio by Real Time-PCR, kis17kid sample against kiskid sample in data set [1] was found to be 38%.

B1: Kid toxin (endoribonuclease) of the parD locus of E. coli plasmid R1 (protein)
chain: MERGEIWLVSLDPTAGHEQQGTRPVLIVTPAAFNRVTRLPVVVPVTSGGNFARTAGFAVSLDGVGIRTTGVVRCDQPRTIDMKARGGKRLERVPETIMNEVLGRLSTILT
On to B1, for which the “cleavage of dnaB mRNA in vitro by purified Kid (4 pmols), alone or with Kis (6 pmols); primer extension” value in data set [2] is “dnaB-mRNA is cleaved by Kid in vitro, and that this effect is inhibited when Kis is added to the reaction”.
